Like-named read-outs stand apart in the source and are kept apart here.
Key:
[1] = biological target: chicken lysozyme (chicken) (UniProt P00698); assay: ELISA, lysozyme (100 ug/ml) coated well blocked with ELK; ~50 ng iMab per well, urea-purified; anti-VSV-HRP
[2] = biological target: chicken lysozyme (chicken) (UniProt P00698); assay: ELISA, lysozyme (100 ug/ml) coated well blocked with ELK; ~50 ng iMab per well, purified by heat (60 C) solubilisation; anti-VSV-HRP
[3] = biological target: chicken lysozyme (chicken) (UniProt P00698)
[4] = biological target: ELK (3% skim milk powder solution); assay: ELISA, ELK-coated control well; ~5 ng iMab per well, urea-purified; anti-VSV-HRP

Sequence of UniProt P00698 (P00698 19-147 limits assumed): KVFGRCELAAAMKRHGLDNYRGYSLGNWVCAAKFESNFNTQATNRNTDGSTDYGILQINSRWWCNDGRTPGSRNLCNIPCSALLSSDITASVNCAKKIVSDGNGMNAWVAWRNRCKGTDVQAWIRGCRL

B1: iMab100 (designed binder, not shown: small tags and cut ends)
chain: NVKLVEKGGNFVENDDDLKLTCRAEGYTIGPYCMGWFRQAPNDDSTNVATINMGGGITYYGDSVKERFDIRRDNASNTVTLSMDDLQPEDSAEYNCAGDSTIYASYYECGHGLSTGGYGYDSHYRGQGTDVTVSS
In the case of B1, the Absorbtion (450 nm) (absorbance (450 nm)) [1] is reported as 0.494 and the Absorbtion (450 nm) (absorbance (450 nm)) [2] is reported as 0.369.

B2: iMab1200 (designed binder)
chain: HGLPMEKRGNFIVGQNCSLTCPASGYTIGPQCVFNCYFNSALAFSTENMGEWTLDMVFSDAGIYTMCAADSTIYASYYECGHGLSTGGYGYNPVSLGSFWDSP
B2 gave an Absorbtion (450 nm) (absorbance (450 nm)) [3] of 0.061 and an Absorbtion (450 nm) (absorbance (450 nm)) [4] of 0.04.

Source: patent WO2003050283A2
